The source of these data is patent publication US20240228599A1 (Sanofi, published 2024).

Assay [1] concerns the target T1, cynomolgus monkey Factor Bb (cynomolgus monkey).
T1 chain: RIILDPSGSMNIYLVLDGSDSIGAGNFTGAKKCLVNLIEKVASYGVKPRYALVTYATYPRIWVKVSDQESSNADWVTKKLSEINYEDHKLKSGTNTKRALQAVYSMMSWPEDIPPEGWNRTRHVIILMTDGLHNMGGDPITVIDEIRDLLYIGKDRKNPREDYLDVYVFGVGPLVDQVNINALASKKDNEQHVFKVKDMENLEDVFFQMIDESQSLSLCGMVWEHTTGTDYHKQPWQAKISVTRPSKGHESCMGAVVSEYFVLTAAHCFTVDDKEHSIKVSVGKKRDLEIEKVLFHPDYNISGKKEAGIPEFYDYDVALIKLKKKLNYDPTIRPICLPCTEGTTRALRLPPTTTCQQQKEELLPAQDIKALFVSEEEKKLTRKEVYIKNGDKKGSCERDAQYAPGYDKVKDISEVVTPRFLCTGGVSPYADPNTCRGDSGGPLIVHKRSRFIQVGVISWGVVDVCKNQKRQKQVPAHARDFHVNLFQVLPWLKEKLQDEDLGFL
The assay can be described thus: ELISA; cynomolgus Factor Bb coated at 5 µg/mL, mAb in 3-fold dilutions from 10 µg/mL; EC50 by Prism according to the text, headed 'Binding Affinity (M)' on the sheet. On the procedure: (§1) The relative EC₅₀ values for factor Bb mAbs were determined by ELISA. Unlabeled purified human Factor Bb (Complement Technologies; 1 μg/mL) was coated onto a high binding ELISA plate, and incubated with increasing amounts of purified mAbs (3-fold serial dilutions starting at 10 μg/mL). Horse radish peroxidase (HRP)-conjugated goat anti-mouse secondary antibody (Southern Biotech) was used for detection, and reacted with 3,3′,5,5′-Tetramethylbenzidine (TMB) 1-Step Ultra TMB-ELISA Substrate Solution (Thermo Scientific). Reactions were stopped with an equal volume of 1N sulfuric acid; and absorbance at OD₄₅₀ₙₘ was measured.
(§2) Factor Bb mAbs were assayed for their ability to bind to cynomolgus monkey Factor B or Factor Bb by ELISA. 5 μg/mL of each purified protein (Innovative Research; purified in-house) was coated onto ELISA plates, incubated with purified factor Bb mAbs (3-fold serial dilutions starting at 10 μg/mL), and bound antibody was detected as in Example 2.

Assay [2] has as its target T2, purified human Factor Bb (human, UniProt P00751 260-764).
T2 construct: Bought purified protein (Complement Technologies); also called fBb; complement factor Bb
Description: ELISA on coated human Factor Bb; EC50 calculated with PRISM from the curves of FIG. 1. The protocol: as §1
Target sequence in this assay (P00751 260-764 limits assumed): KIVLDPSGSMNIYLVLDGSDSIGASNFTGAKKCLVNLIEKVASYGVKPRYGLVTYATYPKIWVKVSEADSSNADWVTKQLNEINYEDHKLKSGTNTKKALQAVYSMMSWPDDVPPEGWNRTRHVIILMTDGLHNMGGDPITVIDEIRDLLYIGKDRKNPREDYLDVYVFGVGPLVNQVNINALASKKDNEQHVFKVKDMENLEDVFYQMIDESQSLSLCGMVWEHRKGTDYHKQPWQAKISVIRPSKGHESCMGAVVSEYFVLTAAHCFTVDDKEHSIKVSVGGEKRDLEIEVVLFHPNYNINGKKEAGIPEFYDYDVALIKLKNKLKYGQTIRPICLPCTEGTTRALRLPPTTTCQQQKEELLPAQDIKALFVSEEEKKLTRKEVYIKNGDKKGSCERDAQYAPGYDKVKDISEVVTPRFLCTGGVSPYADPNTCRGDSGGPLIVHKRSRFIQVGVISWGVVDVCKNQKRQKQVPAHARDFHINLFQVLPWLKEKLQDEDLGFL

The target of assay [3] is T2, purified human Factor Bb. The assay can be described thus: antigen-capture ELISA; mAb at 1 µg/mL on goat anti-mouse IgG plates, 1 µg/mL biotinylated Factor Bb or Factor B, streptavidin-HRP; OD450 with Factor Bb divided by OD450 with Factor B. The protocol: (§3) Preferential binding of factor Bb antibodies to activated factor B versus full length Factor B zymogen was determined in an optimized antigen-capture ELISA format to evaluate binding to target soluble proteins. 1 μg/mL of antibody was bound to goat anti-mouse IgG coated plates (Pierce; Thermo Scientific), followed by incubation with 1 μg/mL biotinylated factor Bb or factor B (Complement Technologies). Bound factor Bb/B proteins were detected with streptavidin-HRP and reacted with TMB 1-Step Ultra TMB-ELISA Substrate Solution (Thermo Scientific). Reactions were stopped with an equal volume of 1N sulfuric acid; and absorbance at OD₄₅₀ₙₘ was measured. The ratio of absorbance of binding by Factor Bb versus Factor B (fBb/B ratio) was calculated and the results are shown in FIG. 3.
(In an ELISA, binding on a coated surface is turned into a signal by an enzyme label.)

The next assay concerns the target T3, full-length Factor B (UniProt P00751 26-764).
T3 construct: Biotinylated in the antigen-capture ELISA, unlabeled in SEC; also called Factor B zymogen; FB
The assay can be described thus: antigen-capture ELISA, antibody on goat anti-mouse IgG plate. On the procedure: as §3

Assay [4] addresses cynomolgus monkey Factor Bb (cynomolgus monkey). The assay can be described thus: cell-based or functional assay.
The target in assay [5] is T2, purified human Factor Bb. The assay can be described thus: antigen-capture ELISA, ratio of absorbance with biotinylated Factor Bb to that with Factor B. On the procedure: as §3
Target sequence in this assay (P00751 260-764 limits assumed): as above
The target in assay [6] is T2, purified human Factor Bb. The assay can be described thus: ELISA; human Factor Bb coated at 1 µg/mL, mAb in 3-fold dilutions from 10 µg/mL, HRP goat anti-mouse, OD450. The protocol: as §1
Target sequence in this assay (P00751 260-764 limits assumed): as above
The target of assay [7] is T4, cynomolgus monkey Factor Bb (cynomolgus monkey).
T4 construct: In the serum assays the target is the factor B/Bb of cynomolgus serum; also called cyno Factor Bb
Description: ELISA; cynomolgus Factor Bb coated at 5 µg/mL, mAb in 3-fold dilutions from 10 µg/mL; EC50 by Prism according to the text, headed 'Binding Affinity (M)' on the sheet. On the procedure: as §1, §2

Assay [8] concerns the target T2, purified human Factor Bb. The assay can be described thus: cell-based or functional assay.
Assay [9] has as its target T2, purified human Factor Bb. Description: antigen-capture ELISA; mAb at 1 µg/mL on goat anti-mouse IgG plates, 1 µg/mL biotinylated Factor Bb or Factor B, streptavidin-HRP; OD450 with Factor Bb divided by OD450 with Factor B; the text rounds this to 5.5. The protocol:
as §3

B1: anti-factor Bb monoclonal antibody M17 (antibody, V domains shown)
VH: EVQLVESGGVLVKPGGSLKLSCAASGFTFSNFAMSWVRQTPAKRLEWVATISNGGGYTYYPDSVQGRFTISRDNANNTLYLQMSSLRSEDTALYYCARIYYGSSYEDWFAYWGQGTLVTVSA
VL: DIVMTPSHKFMSTSVGDRVSITCKASQDVGSAVAWYQQKPGHSPKLLIFWASTRHTGVPDRFTGSGSGTDFTLTISNVQSEDLADYFCQQYSSYPYTFGGGTRLEIK
notes: Mouse monoclonal purified from hybridoma supernatant
Usually EC50 stands for the concentration needed to bring the measured effect to its halfway point. Turning to B1, the EC50 in assay [1] is around 2640 pM; with purified human Factor Bb [2] it was 3140 pM. Also, the “Ratio OD fBb/fB (ELISA)” value with purified human Factor Bb [3] amounted to 70.7. For the same molecule, in the assay with full-length Factor B, the binding result is “no binding (tested: 1 µg/mL biotinylated factor B)”.

B2: anti-factor Bb monoclonal antibody M4 (antibody, V domains shown)
VH: EVQLQQSGPELVKPGASVKMSCKASGYSFTDYLMNWVKQSHGKSLEWIGRINPYNGDAFYNQRFKGKATLTVDKSSSTAHMELRSLTSEDSALYYCARLENDYGFTYWGQGTLVTVSA
VL: DIVMTQAAFSNPVTLGTSASISCSSSKSLLHSNGITYLYWYLQRPGQSPQLLIYRMSNLASGVPDRFSGSGSGTDFTLRISRVEAEDVGVYYCAQMLERPWTFGGGTKLEIK
notes: Mouse monoclonal purified from hybridoma supernatant; also called Factor B/Bb antibody M4
The EC50 (read off the curve) is the concentration that produces a half-maximal response. Take B2: the “IC50, hemolysis of rabbit RBCs by 5% cynomolgus monkey serum” value (shortened to “IC50 … by 5% cynomolgus monkey serum”) in assay [4] turned out to be 25000 pM. Also, in the assay with purified human Factor Bb [2], the concentration giving a half-maximal response (EC50) is 874 pM. For the same molecule, the fBb/B ratio with purified human Factor Bb [5] is at least 1. The “EC50 (read off the curve)” value with purified human Factor Bb [6] was around 800 pM. Also, in the assay with purified human Factor Bb [3], the “Ratio OD fBb/fB (ELISA)” value turned out to be 0.59.

B3: anti-factor Bb monoclonal antibody M12 (antibody, V domains shown)
VH: EVQLQQSGPELVKPGASVKMSCKASGYSFTDYLMNWVKQSHGKSLEWIGRINPYNGDAFYNQRFKGKATLTVDKSSSTAHMELRSLTSEDSALYYCARLENDYGFTYWGQGTLVTVSA
VL: DIVMTQAAFSNPVTLGTSASISCSSSKSLLHSNGITYLYWYLQRPGQSPQLLIYRMSNLASGVPDRFSGSGSGTDFTLRISRVEAEDVGVYYCAQMLERPWTFGGGTKLEIK
notes: as for B1
For B3, the EC50 in [7] is 2550 pM; with purified human Factor Bb [2] it was 761 pM. Also, the “IC50 … by 5% cynomolgus monkey serum” value in assay [4] was determined as 28200 pM. The fBb/B ratio with purified human Factor Bb [5] was at least 1. Further, the 50% effective concentration (EC50 (read off the curve)) in the assay with purified human Factor Bb [6] was around 700 pM. Besides, the “Ratio OD fBb/fB (ELISA)” value in the assay with purified human Factor Bb [3] turned out to be 0.82.

B4: anti-factor Bb monoclonal antibody M10 (antibody, V domains shown)
VH: EVQLVESGGALVKPGGSLKLSCAASGFTFSNYAMSWVRQTPEKRLEWVATISNRGSYTYYPDSVKGRFTISRDNAKNTLYLQMSSLRSEDTALYYCARERPMDYWGQGTSVTVSS
VL: DIVMTQSHKFMSTSVGDRVSITCKASQDVGTAVAWYQQKPGQSPKLLIYWASTRHTGVPDRFTGSGSGTDFTLTITNVQSEDLAVYFCHQHSSNPLTFGAGTKLELK
notes: as for B1
In assay [7], B4 registered an EC50 of 488 pM. Moreover, in [4], the “IC50, Wieslab AP activity, 5.5% cynomolgus monkey serum” value turned out to be 367000 pM and the “IC50 … by 5% cynomolgus monkey serum” value stood at 220000 pM. For the same molecule, in the assay with purified human Factor Bb [8], the “IC50, Wieslab AP activity, 5.5% normal human serum” value was 97900 pM. Also, the EC50 with purified human Factor Bb [2] was 334 pM. Moreover, in the assay with purified human Factor Bb [5], the fBb/B ratio turned out to be 5.5. In the assay with purified human Factor Bb [6], the half-maximal effective concentration (EC50 (read off the curve)) is around 300 pM. Besides, in the assay with purified human Factor Bb [9], the “Ratio OD fBb/fB (ELISA)” value came to 5.49.

B5: anti-factor Bb monoclonal antibody M18 (antibody, V domains shown)
VH: EVQLVESGGALVKPGGSLKLSCAASGFTFSNYAMSWVRQTPEKRLEWVATISNRGSYTYYPDSVKGRFTISRDNAKNTLYLQMSSLRSEDTALYYCARERPMDYWGQGTSVTVSS
VL: DIVMTQSHKFMSTSVGDRVSITCKASQDVGTAVAWYQQKPGQSPKLLIYWASTRHTGVPDRFTGSGSGTDFTLTITNVQSEDLAVYFCHQHSSNPLTFGAGTKLELK
notes: as for B1
With B5, the concentration giving a half-maximal response (EC50) in [7] is 449 pM; with purified human Factor Bb [2], 336 pM. In [4], the “IC50 … by 5% cynomolgus monkey serum” value was found to be 232000 pM. In addition, the fBb/B ratio with purified human Factor Bb [5] was 8.4. Further, in the assay with purified human Factor Bb [6], the “EC50 (read off the curve)” value is around 300 pM.
